{"source": "paper doi:10.1101/2025.02.13.638105", "key": {"[1]": {"molecular_target": "human recombinant wildtype neurofibromin isoform I (human) (UniProt P21359)", "experiment": "cryo-EM structure"}, "[2]": {"molecular_target": "human recombinant wildtype neurofibromin isoform I (human) (UniProt P21359)", "experiment": "cryo-EM structure", "remark": "listed apart in the source"}}, "note": "Where two headings read alike, the source gives them in different places.", "data": [{"substance": "human recombinant wildtype neurofibromin isoform I, P21359-2 1-2818", "values": [{"measurement": "dimers per tetramer (counts of single particles)", "setting": "[1]", "value": 4}, {"measurement": "stoichiometry N", "setting": "[1]", "value": 4}, {"measurement": "stoichiometry N", "setting": "[2]", "value": 2}]}]}
